The values that follow come from PMC8113463, “Structural visualization of transcription activated by a multidrug-sensing MerR family regulator” (Nature Communications, 2021).

For one series, the target named is T1, EcmrR (full length) (Escherichia coli, UniProt A0A8I3B051).
T1 construct: E. coli BL21 Star (DE3); codon-optimised gene; homodimer on promoter DNA with E. coli RNAP-sigma70
The format is binding. The note with it: second site (site II) in CTD; TPSb+ in site I; 8 mM CHAPSO added before grid preparation; density of the sterol head, relevance of the site left open by the authors.

A further series deals with T2, EcmrR CTD (Escherichia coli, UniProt A0A8I3B051).
T2 construct: E. coli BL21 Star (DE3)
Put plainly: X-ray crystal structure, […] Å. The note with it: sites I and II both occupied; detergent of the crystallisation solution, 5 mM. The format is binding.

Series [1] concerns the target EcmrR (multidrug-sensing MerR family transcriptional regulator of Escherichia coli), full length, wild type (Escherichia coli). Put plainly: cryo-EM structure.
In series [2] the target is T3, EcmrR (UniProt PDB:6XLK_3 1-268).
T3 sequence: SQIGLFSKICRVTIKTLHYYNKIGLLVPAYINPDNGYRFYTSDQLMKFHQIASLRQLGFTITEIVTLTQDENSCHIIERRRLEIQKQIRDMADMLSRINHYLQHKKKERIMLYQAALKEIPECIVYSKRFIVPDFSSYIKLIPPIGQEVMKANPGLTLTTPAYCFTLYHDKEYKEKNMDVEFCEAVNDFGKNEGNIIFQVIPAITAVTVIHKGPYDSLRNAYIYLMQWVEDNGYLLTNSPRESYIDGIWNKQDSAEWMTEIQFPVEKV
The series is described as follows: cryo-EM (focused map of spacer DNA subcomplex within RPo); TPSb+, CHAPSO; RNAP present in the particle; Complex assembly: core RNAP:σ70:EcmrR-promoter 1:1.4:2, 5 mM MgCl2, 5 mM TPSb+ Br-, 23 °C 3 h, then (initial transcribing complexes) rNTPs 37 °C 10 min; SEC purified; DNA in 20 mM Tris-HCl pH 7.5, 100 mM KCl, 1 mM TCEP; final SEC buffer not given. The following applies: protein: recombinant; tags: expressed as N-terminal His6-Smt3 fusion; chain copies: 2; pre-melted bubble from non-complementary strand segments, blunt ends.

Series [3] has as its target T3, EcmrR. The series is described as follows: cryo-EM (focused map of spacer DNA subcomplex within RPitc-4nt); TPSb+, CHAPSO; RNAP present in the particle; Complex assembly: core RNAP:σ70:EcmrR-promoter 1:1.4:2, 5 mM MgCl2, 5 mM TPSb+ Br-, 23 °C 3 h, then (initial transcribing complexes) rNTPs 37 °C 10 min; SEC purified; DNA in 20 mM Tris-HCl pH 7.5, 100 mM KCl, 1 mM TCEP; final SEC buffer not given. The note with it: protein: recombinant; tags: expressed as N-terminal His6-Smt3 fusion; chain copies: 2; blunt.

Regarding `C[C@H](CCC(=O)NCCC[N+](C)(C)CC(O)CS(=O)(=O)[O-])[C@H]1CC[C@H]2[C@@H]3[C@H](O)C[C@@H]4C[C@H](O)CC[C@]4(C)[C@H]3C[C@H](O)[C@]12C` (some centres unmarked) [CHAPSO, 3-([3-cholamidopropyl]dimethylammonio)-2-hydroxy-1-propanesulfonate], the “cryo-EM structure of the complex” value at EcmrR (full length) was “The density likely corresponds to the tetracyclic sterol head of CHAPSO”. For the molecule `CCCCCCCCCCCCCCCC[N+](C)(C)C` [CTA^+], the “X-ray crystal structure, 1.4 Å” value on EcmrR CTD was “wherein both sites are occupied by cetyltrimethylammonium cation (CTA^+)”.

The term stoichiometry N denotes the number of molecules, sites or subunits per partner or assembly. With “EcmrR (multidrug-sensing MerR family transcriptional regulator of Escherichia coli), full length, wild type (natural protein)”, the stoichiometry N in series [1] amounted to 2.

B1: 54-bp heteroduplex promoter scaffold, 19-bp spacer (NT strand DNA-1 / T strand DNA-1) (dsDNA)
DNA 1: GCCTTGACCCTCCCCTAAGGGGAGGGTTTAGATTGTGTGCAGTCTGACGCGGCG
DNA 2: CGCCGCGTCAGACTCGTAGGAATCTAAACCCTCCCCTTAGGGGAGGGTCAAGGC
For B1, the binding result in the series with EcmrR [2] was “binds”.

B2: 54-bp fully complementary promoter scaffold, 19-bp spacer (NT strand DNA-1 / T strand DNA-2) (dsDNA)
DNA 1: GCCTTGACCCTCCCCTAAGGGGAGGGTTTAGATTGTGTGCAGTCTGACGCGGCG
DNA 2: CGCCGCGTCAGACTGCACACAATCTAAACCCTCCCCTTAGGGGAGGGTCAAGGC
Turning to B2, in the series with EcmrR [3], the binding result is given as “binds”.
